# Assay results reported in publication PMC8826748 (Nature, 2021).
# Biological target: the molecule itself
# Experiment: cryo-EM structure
protein,measurement,value
"near-full-length human calcium-sensing receptor (CaSR, residues 20-894), Flag-tagged (receptor) AAAYGPDQRAQKKGDIILGGLFPIHFGVAAKDQDLKSRPESVECIRYNFRGFRWLQAMIFAIEEINSSPALLPNLTLGYRIFDTCNTVSKALEATLSFVAQNKIDSLNLDEFCNCSEHIPSTIAVVGATGSGVSTAVANLLGLFYIPQVSYASSSRLLSNKNQFKSFLRTIPNDEHQATAMADIIEYFRWNWVGTIAADDDYGRPGIEKFREEAEERDICIDFSELISQYSDEEEIQHVVEVIQNSTAKVIVVFSSGPDLEPLIKEIVRRNITGKIWLASEAWASSSLIAMPQYFHVVGGTIGFALKAGQIPGFREFLKKVHPRKSVHNGFAKEFWEETFNCHLQEGAKGPLPVDTFLRGHEESGDRFSNSSTAFRPLCTGDENISSVETPYIDYTHLRISYNVYLAVYSIAHALQDIYTCLPGRGLFTNGSCADIKKVEAWQVLKHLRHLNFTNNMGEQVTFDECGDLVGNYSIINWHLSPEDGSIVFKEVGYYNVYAKKGERLFINEEKILWSGFSREVPFSNCSRDCLAGTRKGIIEGEPTCCFECVECPDGEYSDETDASACNKCPDDFWSNENHTSCIAKEIEFLSWTEPFGIALTLFAVLGIFLTAFVLGVFIKFRNTPIVKATNRELSYLLLFSLLCCFSSSLFFIGEPQDWTCRLRQPAFGISFVLCISCILVKTNRVLLVFEAKIPTSFHRKWWGLNLQFLLVFLCTFMQIVICVIWLYTAPPSSYRNQELEDEIIFITCHEGSLMALGFLIGYTCLLAAICFFFAFKSRKLPENFNEAKFITFSMLIFFIVWISFIPAYASTYGKFVSAVEVIAILAASFGLLACIFFNKIYIILFKPSRNTIEEVRCSTAAHAFKVAARATLRRSNV",binding result,binds
